Here are results for 18 sequences from the supplement of paper PMC12764529.

± gives the half width of the 95% confidence interval.

Data set [1] can be described thus: folding stability dG unfold (combined trypsin and chymotrypsin); higher = more stable. The procedure, abridged: (§1)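 Unfolding free energy was derived, per protease or combined, against a sequence-predicted unfolded-state K50 and a shared folded-state K50, starting from K50 inferred by Bayesian fitting of sequencing counts. Digestion with trypsin and chymotrypsin was carried out on designed mini-proteins under 80 residues without cysteine in a PA-tagged cDNA display construct. Only designs with AlphaFold2 dimer inter-PAE above 15 were kept.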

The nature of data set [2]: folding stability dG unfold from chymotrypsin proteolysis; higher = more stable. The procedure, abridged: as §1
The nature of data set [3]: folding stability dG unfold from trypsin proteolysis; higher = more stable. Summed up:
as §1

“SAGGSKIRIVEIQPSNGFTIKIRPKNGKKMTIPIPPDDMNDPENWERFARTLAKWFEKNGVKDIEISAGGSA [r2_249_TrROS]”: the “folding stability dG unfold” value in data set [1] was 2.25 ± 1.09 kJ/mol; in data set [2], 2.57 ± 1.55 kJ/mol; in data set [3] it was 1.31 ± 0.711 kJ/mol.

Turning to “SAGGSKKKIYKIKIKIEVINEETGEKKTVEIEIEAESLEEALAAIAKALLPEGQTVKIVDIEIEEVSAGGSA [r2_320_TrROS_Hall]”, the entries for the “folding stability dG unfold” value in data set [1], in data set [2] and in data set [3] were 15.6 ± 0.356 kJ/mol, 16.3 ± 0.331 kJ/mol and 14.3 ± 0.289 kJ/mol, respectively.

As to “SAGGSKLKNLKSKPFPITFENGGKVTLNVVNIPKSSKPVVNITVIEPNSGKKKTFTVPLEEAKNLLSAGGSA [r2_366_TrMRF]”, the figures for the “folding stability dG unfold” value in data set [1], in data set [2] and in data set [3] were 3.64 ± 0.372 kJ/mol, 4.87 ± 0.502 kJ/mol and 1.65 ± 0.297 kJ/mol, respectively.

Take “SAGGSKPEKIKVVSVEVFPDGLIKVKVKTESGYEATALIVKLPGDKYLIFLTIPANGKPFVFELPASAGGSA [r2_361_TrMRF]”: the results for the “folding stability dG unfold” value in data set [1], in data set [2] and in data set [3] were 10.6 ± 0.301 kJ/mol, 10.9 ± 0.13 kJ/mol and 9.89 ± 0.247 kJ/mol, respectively.

Turning to “SAGGSKTVTLTVTVEVNGKTFTVTVTLTYDEETNKLTITVEISAKSEEERERARELVEKLLKELLSSAGGSA [r2_259_TrROS_Hall]”, the “folding stability dG unfold” value in data set [1] turned out to be 20 ± 0.544 kJ/mol; in data set [2], 20.7 ± 0.393 kJ/mol; in data set [3], 16 ± 0.502 kJ/mol.

Turning to “SAGGSKTVTVTVRIKVTNEDGEELTVTARLTYNEETGEVTVEIEMSPEALERLRELFPDVKIEIYPSAGGSA [r2_409_TrROS_Hall]”, the “folding stability dG unfold” value worked out at 16.3 ± 1.34 kJ/mol in data set [1], 12.9 ± 0.544 kJ/mol in data set [2] and 17.1 ± 0.92 kJ/mol in data set [3].

“SAGGSKVTLEVNEDGTVTLTVTRPDGKKVTLTITKNEDGTYTIRDEETGKTITVPAGMSIEELLKASAGGSA [r2_338_TrROS_Hall]”: the “folding stability dG unfold” value worked out at 21.3 ± 0.418 kJ/mol in data set [1], 21.6 ± 0.586 kJ/mol in data set [2] and 15.5 ± 0.502 kJ/mol in data set [3].

Take “SAGGSLKIKIRNPDGMPFKIDVVRYPNHIRIKFKFGNKPVAFMIDPESDTINFRIPGWPFQIEIEPSAGGSA [r2_194_TrROS]”: the “folding stability dG unfold” value in data set [1] was found to be 13.7 ± 0.628 kJ/mol; in data set [2] it was 14.2 ± 0.385 kJ/mol; in data set [3], 12.4 ± 0.402 kJ/mol.

“SAGGSLPELLKLAKELAKKLGAKDLTAKESGEITIKSPENITITVSTEDGEPVVTINNTSTSSTIPLSAGGS [r16_296_JUSTAS]”: the “folding stability dG unfold” value was -0.753 ± 1.09 kJ/mol in data set [1], -0.774 ± 0.92 kJ/mol in data set [2] and -1.51 ± 1.34 kJ/mol in data set [3].

With “SAGGSLRQLIRALFKKKGIPIEPEKVDPNWVTFKVPNKDVKIDLPDGNKIEIKPNGYVRIRIPPDDLSAGGS [r8_297_TrROS]”, the “folding stability dG unfold” value was -0.42 ± 1.67 kJ/mol in data set [1], -1.48 ± 3.72 kJ/mol in data set [2] and -0.718 ± 2.85 kJ/mol in data set [3].

In the case of “SAGGSLTAEWDTSTGTVRLTFPDGSVVELPFPTSGAVVRATVDGDKVTIEVLDKDNPKVVARFTFDLGSAGG [r13_938_TrMRF]”, the “folding stability dG unfold” value in data set [1] stood at 18.3 ± 0.795 kJ/mol; in data set [2] it was 19.8 ± 0.628 kJ/mol; in data set [3] it was 15.9 ± 0.837 kJ/mol.

“SAGGSLVTTEFPGVTITTDPATGVLTVEASPEEVERLIEALGPEFNPVEIRRLPDGSYLLTLPVTPPSAGGS [r8_415_JUSTAS]”: the “folding stability dG unfold” value was 8.8 ± 0.126 kJ/mol in data set [1], 8.545 ± 0.0837 kJ/mol in data set [2] and 8.92 ± 0.126 kJ/mol in data set [3].

Consider “SAGGSMALVEIERPGGEGALRTVDTSNPAAVKAFVDAVPEDEPVRVYTDDPAVVELFKEAGFDEVLLESAGG [r13_476_JUSTAS]”, for which the entries for the “folding stability dG unfold” value in data set [1], in data set [2] and in data set [3] were 2.3 ± 0.402 kJ/mol, 3.24 ± 0.364 kJ/mol and -0.343 ± 0.222 kJ/mol, respectively.

For the sequence “SAGGSMAPDVKVEVEVFPDGLVLFRLTLPDGRPFLALAEVREDGRVKVVVFDLYPGEKVEFEIPIKSAGGSA [r2_99_TrMRF]”, the “folding stability dG unfold” value stood at 13.7 ± 0.586 kJ/mol in data set [1], 15.5 ± 0.188 kJ/mol in data set [2] and 10.5 ± 0.502 kJ/mol in data set [3].

For “SAGGSMELELEVKNPETGKTYKVKITSFDEETGEVTVEIEDEETGETKTLTFKVEPVELVEEEEEESAGGSA [r2_147_TrROS_Hall]”, the “folding stability dG unfold” value in data set [1] amounted to 12.9 ± 0.318 kJ/mol; in data set [2], 13.7 ± 0.155 kJ/mol; in data set [3], 9.97 ± 0.418 kJ/mol.

Consider “SAGGSMERTVELTYTFKDKPIKITITVTTDPETGTVTVPIEIETEDEKIKEPALEKAKELAEELLASAGGSA [r2_259_JUSTAS]”, for which the “folding stability dG unfold” value in data set [1] worked out at 1.26 ± 0.502 kJ/mol; in data set [2], 1.09 ± 0.544 kJ/mol; in data set [3] it was 0.555 ± 0.272 kJ/mol.

Take “SAGGSMETRETLEERTLPNGEKVLTTTTTYPDGTVTTRTTVIHGGTSTVTTTTTPAAPVPGPAPARASAGGS [r16_523_JUSTAS]”: the “folding stability dG unfold” value was determined as 6.49 ± 0.356 kJ/mol in data set [1], 8.41 ± 0.247 kJ/mol in data set [2] and 1.76 ± 0.117 kJ/mol in data set [3].

As for “SAGGSMEVKVEVVKDEETKEYYVKVEIRDPKTKKTITLEYKVKEEDKEEALKKAKELAEELAKKGISAGGSA [r2_221_TrROS_Hall]”, the “folding stability dG unfold” value is 14.6 ± 0.418 kJ/mol in data set [1], 15.2 ± 0.322 kJ/mol in data set [2] and 13.7 ± 0.586 kJ/mol in data set [3].
